Results from patent publication US20100239633A1.

Molecular target: Human FcγRIIIa (human) (UniProt P08637)
Assay: SPR (Biacore), FcγRIIIa immobilized; 1:1 with mass transfer fit

Ka	Kd	Substance
1.8e+07 M⁻¹	5.5 µM	G-011 (from UniProt P01854 104-210)
2.1e+08 M⁻¹	0.0047 µM	mouse IgG2a (antibody)
